B1: hSel001 humanized IgG2 anti-P-selectin antibody (antibody, from another filing, V domains shown)
VH: QVQLVQSGAEVKKPGASVKVSCKVSGYTFTSYDINWVRQAPGKGLEWMGWIYPGDGSIKYNEKFKGRVTMTVDKSTDTAYMELSSLRSEDTAVYYCARRGEYGNYEGAMDYWGQGTLVTVSS
VL: DIQMTQSPSSLSASVGDRVTITCKASQSVDYDGHSYMNWYQQKPGKAPKLLIYAASNLESGVPSRFSGSGSGTDFTLTISSLQPEDFATYYCQQSDENPLTFGGGTKVEIKR

Legend:
[1] = biological target: Soluble human P-selectin (human) (UniProt P16109); test: SPR (SensiQ), antibody captured on protein G, soluble human P-selectin 100nM-1.56nM as analyte
Chain of UniProt P16109 (P16109 42-771 limits assumed): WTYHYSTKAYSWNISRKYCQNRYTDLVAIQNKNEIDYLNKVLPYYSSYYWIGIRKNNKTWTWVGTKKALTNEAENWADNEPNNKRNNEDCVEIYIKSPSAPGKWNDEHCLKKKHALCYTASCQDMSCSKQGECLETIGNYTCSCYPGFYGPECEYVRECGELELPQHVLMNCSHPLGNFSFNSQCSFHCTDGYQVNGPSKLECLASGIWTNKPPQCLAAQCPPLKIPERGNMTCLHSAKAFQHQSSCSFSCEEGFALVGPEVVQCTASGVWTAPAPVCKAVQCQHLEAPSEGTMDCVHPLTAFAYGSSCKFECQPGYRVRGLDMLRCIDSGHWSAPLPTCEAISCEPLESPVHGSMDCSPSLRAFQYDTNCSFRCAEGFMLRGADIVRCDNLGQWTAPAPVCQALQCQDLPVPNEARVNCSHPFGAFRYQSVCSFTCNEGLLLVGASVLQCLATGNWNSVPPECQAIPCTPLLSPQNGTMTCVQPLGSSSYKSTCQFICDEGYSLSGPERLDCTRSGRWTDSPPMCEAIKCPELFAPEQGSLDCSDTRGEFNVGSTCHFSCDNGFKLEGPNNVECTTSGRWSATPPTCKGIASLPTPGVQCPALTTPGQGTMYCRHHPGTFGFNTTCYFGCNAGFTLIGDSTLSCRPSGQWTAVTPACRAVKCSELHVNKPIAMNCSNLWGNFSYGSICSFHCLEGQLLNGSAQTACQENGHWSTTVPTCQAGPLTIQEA

[2] = biological target: Soluble human P-selectin (human) (UniProt P16109); test: SPR (SensiQ), reference G1

Row | Molecule | Kd [1] [nM] | koff [1] [s⁻¹] | kon [1] [M⁻¹ s⁻¹] | Ka (association constant) higher than G1 [2] [%] | improvement in the binding affinity compared to G1 [2] [%]
1 | G1 mouse monoclonal anti-P-selectin antibody | 8.94 | 0.056 | 6.3e+06 |  | 
2 | B1 | 5.89 | 0.0131 | 2.22e+06 | 64.7 | 34

From patent publication EP3222635A1
